Experiments:
Test in all cases: pull-down
[1] = molecular target: T1, ZCCHC3 MF R168/247S R168S;R247S (human) (UniProt Q9NUD5)
T1 sequence: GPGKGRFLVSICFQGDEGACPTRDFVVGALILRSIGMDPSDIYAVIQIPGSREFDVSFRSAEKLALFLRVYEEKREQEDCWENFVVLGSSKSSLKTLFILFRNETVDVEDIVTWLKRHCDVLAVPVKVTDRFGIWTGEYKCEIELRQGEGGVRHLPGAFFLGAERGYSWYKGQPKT

ZCCHC3 MF R247S (human) = test system: ZCCHC3 MF R247S (human)
ZCCHC3 MF R168S (human) = test system: ZCCHC3 MF R168S (human)

Question: For HIV-1 LTR (R-U5) RNA, which binding signal [1] is on record?
Answer: 15 % of WT MF

Question: And the binding signal (ZCCHC3 MF R247S (human))?
Answer: 50 % of WT MF

Question: What about the binding signal (ZCCHC3 MF R168S (human)) of the same substance?
Answer: 50 % of WT MF

From article doi:10.1101/2023.06.14.544911
